In US20200138866A1 (XYPHOS BIOSCIENCES, published 2020):

Biological target: T1, Fc-NKG2D.Y152A (human)
T1 construct: also called NKG2D.YA; Fc-NKG2D.YA
Assay: ELISA and Octet

T1 sequence (chain, as listed by the source Y152A Y152A limits assumed): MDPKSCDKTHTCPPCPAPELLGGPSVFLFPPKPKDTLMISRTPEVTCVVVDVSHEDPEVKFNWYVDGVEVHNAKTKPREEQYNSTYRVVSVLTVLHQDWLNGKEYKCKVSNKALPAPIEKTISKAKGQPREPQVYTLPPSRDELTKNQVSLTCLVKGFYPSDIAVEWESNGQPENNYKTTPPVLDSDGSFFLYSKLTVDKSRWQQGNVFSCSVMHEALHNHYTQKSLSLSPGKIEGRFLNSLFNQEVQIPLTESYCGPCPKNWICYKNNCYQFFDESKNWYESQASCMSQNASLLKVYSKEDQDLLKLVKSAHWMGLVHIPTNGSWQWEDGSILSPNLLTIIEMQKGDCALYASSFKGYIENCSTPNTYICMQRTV

B1: rituximab-ULBP2.S3 MicAbody (bispecific antibody, human IgG1, kappa)
heavy: not shown
light: QIVLSQSPAILSASPGEKVTMTCRASSSVSYIHWFQQKPGSSPKPWIYATSNLASGVPVRFSGSGSGTSYSLTISRVEAEDAATYYCQQWTSNPPTFGGGTKLEIKRTVAAPSVFIFPPSDEQLKSGTASVVCLLNNFYPREAKVQWKVDNALQSGNSQESVTEQDSKDSTYSLSSTLTLSKADYEKHKVYACEVTHQGLSSPVTKSFNRGECAPTSSSGGGGSEPHSLSYDITVIPKFRPGPRWCAVQGQVDEKTFLHYDCGNKTVTPVSPLGKKLNVTTAWKAQNPVLREVVDILTEQLWDIQLENYTPKEPLTLQARMSCEQKAEGHSSGSWQFSFDGQIFLLFDSEKRMWTTVHPGARKMKEKWENDKVVATKLYLWSMGDCIGWLEDFLMGMDSTLEPS
notes: also called ULPB2.S3; U2S3 MicAbody
- binding result: binds
